Assay results: article PMC5538626 (EMBO Reports, 2017)
Ends that are not written are not given here.

Tests used:
Test in all cases: ELISA; called peptide array: biotinylated peptides immobilised on streptavidin-coated 96-well plates; 1 μM His6-mATG8 in PBS, 0.1% Tween-20, 1% BSA, 1 h, 8°C; anti-His-HRP, TMB, absorbance at 450 nm
Conditions in all cases: both partners purified
[1] = biological target: 6xHis‐tagged LC3B (human, UniProt Q9GZQ8 1-120)
[2] = biological target: T1, 6xHis‐tagged GABARAP (human, UniProt O95166 1-117)
T1 construct: GABARAP, human; also called His6‐GABARAP; source: E. coli, isolated

[3] = biological target: T2, 6xHis‐tagged GABARAP‐L1 (human, UniProt Q9H0R8 1-117)
T2 construct: GABARAP-L1, human; also called His6‐GABARAP‐L1; source: E. coli, isolated

[4] = biological target: T3, 6xHis‐tagged GABARAP‐L2 (human, UniProt P60520 1-117)
T3 construct: GABARAP-L2/GATE-16, human; also called His6‐GABARAP‐L2; GATE‐16; source: E. coli, isolated
T3 sequence (P60520 whole entry): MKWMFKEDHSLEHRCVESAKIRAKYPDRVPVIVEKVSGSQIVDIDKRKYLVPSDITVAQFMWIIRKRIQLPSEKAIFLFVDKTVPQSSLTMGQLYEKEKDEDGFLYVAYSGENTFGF

T2 sequence (Q9H0R8 whole entry, looked up): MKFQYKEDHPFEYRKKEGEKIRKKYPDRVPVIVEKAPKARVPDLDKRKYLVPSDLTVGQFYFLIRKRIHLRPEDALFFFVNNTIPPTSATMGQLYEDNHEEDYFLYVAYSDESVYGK
T1 sequence (O95166 whole entry): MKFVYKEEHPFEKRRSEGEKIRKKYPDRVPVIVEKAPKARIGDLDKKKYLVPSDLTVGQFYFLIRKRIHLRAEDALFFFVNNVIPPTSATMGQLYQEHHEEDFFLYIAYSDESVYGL

B1: FIP200 LIR peptide (699–707), biotinylated (peptide)
peptide: TFDFETIPH
modifications: also: biotinylated
notes: FIP200 LIR; source: bought: JPT (biotinylated peptide)
B1: binds [1]; binds [2].

B2: Tax1BP1 LIR peptide (137–145), biotinylated (peptide)
peptide: NSDMLVVTT
modifications: also: biotinylated
notes: Tax1BP1 LIR; source: bought: JPT (biotinylated peptide)
B2: binds [1]; binds [2].

B3: ULK2 LIR peptide (350–358), biotinylated (peptide)
peptide: TDDFVLVPH
modifications: also: biotinylated
notes: ULK2 LIR; source: bought: JPT (biotinylated peptide)
B3: binds [2].

B4: TP53INP2/DOR LIR peptide (32–40), biotinylated (peptide)
peptide: VDGWLIIDL
modifications: also: biotinylated
notes: TP53INP2/DOR LIR; source: bought: JPT (biotinylated peptide)
B4: binds [1]; binds [2].

B5: TP53INP1 LIR peptide (28–36), biotinylated (peptide)
peptide: DDEWILVDF
modifications: also: biotinylated
notes: TP53INP1 LIR; source: bought: JPT (biotinylated peptide)
B5: binds [1]; binds [2].

B6: PLEKHM1‐LIR N637K peptide (biotinylated 9-mer) (peptide, UniProt Q9Y4G2 632-640, looked up)
peptide: EDEWVKVQY
modifications: also: biotinylated
notes: PLEKHM1 LIR; source: bought: JPT (biotinylated peptide)
B6: binds [2]; binds [3]; binds [4].

B7: PLEKHM1‐LIR N637R peptide (biotinylated 9-mer) (peptide, UniProt Q9Y4G2 632-640, looked up)
peptide: EDEWVRVQY
modifications: also: biotinylated
notes: as for B6
B7: binds [2]; binds [3]; binds [4].

B8: NDP52 LIR peptide (130–138), biotinylated (peptide)
peptide: EEDILVVTT
modifications: also: biotinylated
notes: NDP52 LIR; source: bought: JPT (biotinylated peptide)
B8: binds [1]; binds [2].

B9: TBC1D5 (LIR2) peptide (785–793), biotinylated (peptide)
peptide: DSGFTIVSP
modifications: also: biotinylated
notes: TBC1D5 LIR2; source: bought: JPT (biotinylated peptide)
B9: binds [1]; binds [2].

B10: JMY LIR peptide (10–18), biotinylated (peptide)
peptide: ESDWVAVRP
modifications: also: biotinylated
notes: JMY LIR; source: bought: JPT (biotinylated peptide)
B10: binds [2].

B11: ATG4B LIR peptide (4–12), biotinylated (peptide)
peptide: TLTYDTLRF
modifications: also: biotinylated
notes: ATG4B LIR; source: bought: JPT (biotinylated peptide)
B11: binds [1]; binds [2].

B12: c‐CBL LIR peptide (799–807), biotinylated (peptide)
peptide: SFGWLSLDG
modifications: also: biotinylated
notes: c-CBL LIR; source: bought: JPT (biotinylated peptide)
B12: binds [1]; binds [2].

B13: MAP15K LIR peptide (337–345), biotinylated (peptide)
peptide: SRVYQMILE
modifications: also: biotinylated
notes: printed as MAP15K; source: bought: JPT (biotinylated peptide)
B13: binds [1]; binds [2].

B14: PLEKHM1‐LIR V638A peptide (biotinylated 9-mer) (peptide, UniProt Q9Y4G2 632-640, looked up)
peptide: EDEWVNAQY
modifications: also: biotinylated
notes: as for B6
B14: binds [2]; binds [4].

B15: OPTN LIR peptide (175–183), biotinylated (peptide)
peptide: EDSFVEIRM
modifications: also: biotinylated
notes: OPTN LIR; source: bought: JPT (biotinylated peptide)
B15: binds [2].

B16: FYCO1 LIR peptide (1277–1285), biotinylated (peptide)
peptide: DAVFDIITD
modifications: also: biotinylated
notes: FYCO1 LIR; source: bought: JPT (biotinylated peptide)
B16: binds [1]; binds [2].

B17: PLEKHM1‐LIR N637P peptide (biotinylated 9-mer) (peptide, UniProt Q9Y4G2 632-640, looked up)
peptide: EDEWVPVQY
modifications: also: biotinylated
notes: as for B6
B17: binds [2]; binds [3]; binds [4].

B18: Clathrin HC1 LIR peptide (511–519), biotinylated (peptide)
peptide: TPDWIFLLR
modifications: also: biotinylated
notes: Clathrin HC1 LIR; source: bought: JPT (biotinylated peptide)
B18: binds [2].

B19: PLEKHM1‐LIR V636A peptide (biotinylated 9-mer) (peptide, UniProt Q9Y4G2 632-640, looked up)
peptide: EDEWANVQY
modifications: also: biotinylated
notes: as for B6
B19: binds [2]; binds [4].

B20: NIX/BNIPL3 LIR peptide (33–41), biotinylated (peptide)
peptide: NSSWVELPM
modifications: also: biotinylated
notes: NIX LIR; also called Nix/BNIP3L; source: bought: JPT (biotinylated peptide)
B20: binds [1]; binds [2].

B21: TBC1D25 LIR peptide (133–141), biotinylated (peptide)
peptide: LEDWDIISP
modifications: also: biotinylated
notes: TBC1D25 LIR; source: bought: JPT (biotinylated peptide)
B21: binds [1]; binds [2].

B22: STBD1 LIR peptide (200–208), biotinylated (peptide)
peptide: HEEWEMVPR
modifications: also: biotinylated
notes: STBD1 LIR; source: bought: JPT (biotinylated peptide)
B22: binds [2].

B23: β‐Catenin LIR peptide (501–509), biotinylated (peptide)
peptide: PSHWPLIKA
modifications: also: biotinylated
notes: β-Catenin LIR; source: bought: JPT (biotinylated peptide)
B23: binds [1]; binds [2].

B24: PLEKHM1‐LIR N637A peptide (biotinylated 9-mer) (peptide, UniProt Q9Y4G2 632-640, looked up)
peptide: EDEWVAVQY
modifications: also: biotinylated
notes: as for B6
B24: binds [2]; binds [3]; binds [4].

B25: TECPR2 LIR peptide (1403–1411), biotinylated (peptide)
peptide: DLEDEWEVI
modifications: also: biotinylated
notes: TECPR2 LIR; source: bought: JPT (biotinylated peptide)
B25: binds [1]; binds [2].

B26: NBR1 LIR peptide (729–737), biotinylated (peptide)
peptide: SEDYIIILP
modifications: also: biotinylated
notes: NBR1 LIR; source: bought: JPT (biotinylated peptide)
B26: binds [2].

B27: TBC1D5 (LIR1) peptide (55–63), biotinylated (peptide)
peptide: RKEWEELFV
modifications: also: biotinylated
notes: TBC1D5 LIR1; source: bought: JPT (biotinylated peptide)
B27: binds [2].

B28: PLEKHM1‐LIR N637G peptide (biotinylated 9-mer) (peptide, UniProt Q9Y4G2 632-640, looked up)
peptide: EDEWVGVQY
modifications: also: biotinylated
notes: as for B6
B28: binds [2]; binds [3]; binds [4].

B29: DVL2 LIR peptide (441–449), biotinylated (peptide)
peptide: DRMWLKITI
modifications: also: biotinylated
notes: DVL2 LIR; source: bought: JPT (biotinylated peptide)
B29: binds [1]; binds [2].

B30: Calreticulin LIR peptide (197–205), biotinylated (peptide)
peptide: EDDWDFLPP
modifications: also: biotinylated
notes: Calreticulin LIR; source: bought: JPT (biotinylated peptide)
B30: binds [1]; binds [2].

B31: ULK1 LIR peptide (354–362), biotinylated (peptide)
peptide: TDDFVMVPA
modifications: also: biotinylated
notes: ULK1 LIR; source: bought: JPT (biotinylated peptide)
B31: binds [2].

B32: FUNDC1 LIR peptide (printed positions 152–160), biotinylated (peptide)
peptide: DDSYEVLDL
modifications: also: biotinylated
notes: FUNDC1 LIR; source: bought: JPT (biotinylated peptide)
B32: binds [1].

B33: KTBD6 LIR peptide (665–673), biotinylated (peptide)
peptide: DDFWVRVAP
modifications: also: biotinylated
notes: KBTBD6 in the text; also called KBTBD6; KBTDB6; source: bought: JPT (biotinylated peptide)
B33: binds [2].

B34: ATG13 LIR peptide (441–449), biotinylated (peptide)
peptide: HDDFVMIDF
modifications: also: biotinylated
notes: ATG13 LIR; source: bought: JPT (biotinylated peptide)
B34: binds [2].

B35: FAM134B LIR peptide (452–460), biotinylated (peptide)
peptide: GDDFELLDQ
modifications: also: biotinylated
notes: FAM134B LIR; source: bought: JPT (biotinylated peptide)
B35: binds [1]; binds [2].
